{"source": "patent US9814672B2", "about": "“Echogenic vehicle for clinical delivery of plasminogen activator and other fibrin-binding therapeutics to thrombi” (priority 2007, dated 2017)", "key": {"fibrin [1]": {"target": "T1, fibrin (Homo sapiens, UniProt P02671+P02675+P02679)", "T1 construct": "purchased Calbiochem (EMD Biosciences, Inc., La Jolla, Calif.)", "T1 sequence (P02671 36-629 limits assumed)": "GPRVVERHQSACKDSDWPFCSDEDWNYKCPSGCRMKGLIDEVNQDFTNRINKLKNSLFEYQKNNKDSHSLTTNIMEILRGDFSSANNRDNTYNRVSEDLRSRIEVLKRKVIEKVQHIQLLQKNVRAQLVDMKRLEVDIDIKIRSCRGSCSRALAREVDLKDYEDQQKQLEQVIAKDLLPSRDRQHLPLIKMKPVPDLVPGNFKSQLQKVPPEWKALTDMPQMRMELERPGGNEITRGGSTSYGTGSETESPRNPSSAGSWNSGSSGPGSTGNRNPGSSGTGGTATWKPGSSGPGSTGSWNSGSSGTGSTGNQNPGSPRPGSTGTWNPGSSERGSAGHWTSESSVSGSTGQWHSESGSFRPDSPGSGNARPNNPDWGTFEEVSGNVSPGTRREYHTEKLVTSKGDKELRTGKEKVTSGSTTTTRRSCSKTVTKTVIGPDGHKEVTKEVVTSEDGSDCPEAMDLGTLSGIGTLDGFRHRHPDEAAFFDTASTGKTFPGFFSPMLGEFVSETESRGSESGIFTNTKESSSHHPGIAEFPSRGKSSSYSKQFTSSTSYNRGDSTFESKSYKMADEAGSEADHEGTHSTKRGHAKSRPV", "T1 sequence (P02675 45-491 limits assumed)": "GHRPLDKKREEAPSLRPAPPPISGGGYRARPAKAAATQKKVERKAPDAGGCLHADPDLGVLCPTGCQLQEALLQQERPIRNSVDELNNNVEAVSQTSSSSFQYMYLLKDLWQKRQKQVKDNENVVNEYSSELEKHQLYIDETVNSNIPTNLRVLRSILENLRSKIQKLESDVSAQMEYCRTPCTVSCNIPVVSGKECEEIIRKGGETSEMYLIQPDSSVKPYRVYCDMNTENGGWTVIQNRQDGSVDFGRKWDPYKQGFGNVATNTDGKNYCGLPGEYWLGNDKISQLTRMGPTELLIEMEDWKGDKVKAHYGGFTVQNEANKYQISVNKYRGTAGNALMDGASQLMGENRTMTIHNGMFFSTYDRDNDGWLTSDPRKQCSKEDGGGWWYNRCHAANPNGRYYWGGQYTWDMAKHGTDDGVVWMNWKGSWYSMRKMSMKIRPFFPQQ", "T1 sequence (P02679 27-437 isoform P02679-2 limits assumed)": "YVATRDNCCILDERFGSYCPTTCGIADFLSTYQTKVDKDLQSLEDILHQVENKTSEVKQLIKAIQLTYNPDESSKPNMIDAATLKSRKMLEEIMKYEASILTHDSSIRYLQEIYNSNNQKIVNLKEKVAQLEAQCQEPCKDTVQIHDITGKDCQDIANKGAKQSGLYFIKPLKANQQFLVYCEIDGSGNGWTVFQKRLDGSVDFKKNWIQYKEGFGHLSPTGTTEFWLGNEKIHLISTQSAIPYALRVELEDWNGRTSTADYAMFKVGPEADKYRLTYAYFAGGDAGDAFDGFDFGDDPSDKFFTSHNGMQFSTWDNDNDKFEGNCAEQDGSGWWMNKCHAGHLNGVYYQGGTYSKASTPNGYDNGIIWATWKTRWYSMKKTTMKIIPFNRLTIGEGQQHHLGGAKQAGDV", "experiment": "Two-stage fibrin pad ELISA, Scatchard and van't Hoff analysis", "type": "binding", "settings": "for Avidity: Kassoc × no. ligand molecules/liposome; for Kassoc: detergent-treated preparation", "description": "Added 100 μl 0.2% BSA/PBS to each well and incubated at 37° C. for 1 hour. All subsequent incubations were also at 37° C. Aspirated the wells and washed the plate 3× with PBS-T. Added Activase dilutions (10, 5, 2.5, 1.25, and 0.625 μg/ml PBS-T) to replicate wells ([…]). Incubated for 2 hours. Removed the contents of each well and pooled all samples within each dilution. Stored pooled samples at 4° C. For tPA-ELIP dilutions (in PBS), the third wash before adding the samples was with PBS. Stored the pooled tPA-ELIP samples in polypropylene tubes.\nAdded monoclonal anti-tPA capture antibody (Ab) (5 μg/ml coating buffer; […]) to rows B, C, E and G of a fresh microplate. Incubated in a humidified chamber at 4° C. overnight. All subsequent incubations were in humidified chambers at 37° C. at volumes of 50 μl/well, followed by aspiration of wells and 3× washes with PBS-T. Blocked all rows with conjugate buffer for 1 hour. Added tPA standards (50, 25, 12.5, 6.25 and 3.13 ng/ml) and pooled sample dilutions (in PBS-T) in duplicate to sample (B, C, E, G) and background (A, D, F, H) wells. Incubated for 2 hours. Added secondary detection Ab (10 μg sheep anti-tPA/ml 0.1% BSA in PBS-T) to all wells and incubated 1 hour, followed by a conjugate incubation (3,000× diluted with conjugate buffer; 1 hour). Added 50 μl of substrate buffer+500 of substrate (1 tablet/5 ml substrate buffer) to each well. Incubated at 37° for 15 minutes. Immediately quenched with 5 μl of 1M sodium hydroxide/well. Read the plate at 405 nm. Determined net absorbance (A405) by subtracting background OD from sample OD (e.g., B4-A4 or E7-F7).\nCalculated the undiluted tPA concentrations of each pooled sample from the standard curve. These represented the free fractions ([F]) of the sample dilutions after equilibrium incubation with fibrin. Obtained the bound concentrations ([B]) by subtracting the free values from the total tPA concentration of the starting dilutions. Prepared Scatchard plots by plotting [B] (x-axis) vs. B/F (y-axis). The slope=−Kassoc and the y-intercept=Kassoc[n], where [n] was the concentration of exposed tPA binding sites on the fibrin pads.\nDilutions of untreated, sham-treated (control) and PPACK-treated (tPA(P)) tPA, as well as tPA(P) conjugated to ELIP (tPA(P)-ELIP), were incubated on replicate fibrin pads, prepared in microplate wells according to a modification of the method of Edgell et al. (1996). Human thrombin was added to a solution of 0.5 mg/ml of human fibrinogen in 0.02M phosphate-buffered saline, pH 7.4 (PBS), to a final concentration of 0.125 IU thrombin/ml; 100 μl of this solution was immediately added to each well and incubated at 37° C. for 45 minutes, followed by overnight drying of the plate at 45° C. After incubation with 100 μl/well of 0.2% BSA in PBS for 1 hour, samples (100 μl/well) were incubated for 2 hours at 37° C. For thermodynamic analyses, this incubation was performed at three temperatures (5, 24 and 37° C.). In order to determine the concentration of free tPA remaining in solution after incubation of tPA with fibrin, from which the concentration of bound tPA could be calculated for Scatchard analysis, the contents of duplicate wells were recovered, pooled and subsequently assayed for immunoreactive tPA in a standard quantitative sandwich ELISA.\nBriefly, Nunc MaxiSorp microtiter plates were coated with 5 μg/ml of a monoclonal anti-tPA capture antibody (Ab) in 0.05M sodium bicarbonate, pH 9.6, overnight at 4° C. All incubation volumes were 50 μl/well. One-half of wells were left uncoated for determination of nonspecific binding. After aspirating well contents, all wells were blocked with conjugate buffer (1% BSA in 0.05M Tris buffer, pH 8.0, with 0.02% sodium azide) for 1 hour. From this point, all incubations were at 37° C. Each incubation was followed by aspiration of well contents and washes (3×) with PBS-T (PBS with 0.05% Tween 20). […]"}, "[2]": {"experiment": "tPA enzyme activity after PPACK inactivation, paranitroanilide-substrate method", "type": "biochemical", "settings": "S.E., n=3", "description": "Reconstituted tPA was incubated with a fivefold molar excess of PPACK in 0.2 M L-arginine in 0.05M phosphate buffer, pH 7.2, with 0.01% Tween 20 for 1 hour at room temperature, followed by dialysis against reaction buffer to remove unreacted PPACK. A control preparation was carried through the procedure without PPACK and all procedures involving PPACK were protected from light. Enzyme activity in PPACK-treated and control tPA preparations was measured with a […] paranitroanilide-substrate method (Ranby and Wallen, 1981)."}, "fibrin [3]": {"target": "T1, fibrin", "experiment": "Two-stage fibrin pad ELISA, Scatchard and van't Hoff analysis", "settings": "undiluted fresh-frozen rabbit serum, 37° C.; read-out: binding affinity (KD) in serum"}}, "note": "Where two headings read alike, the source gives them in different places."}
{"substance": "Fibrinogen [reference compound]", "values": [{"measurement": "cross-reactivity with fibrin", "setting": "fibrin [1]; competition with tPA samples, Example 12", "result": 5, "unit": "%"}]}
{"substance": "Sham (Control): tPA control preparation carried through the inactivation procedure without PPACK [reference compound]", "values": [{"measurement": "Percent Starting Activity", "setting": "[2]", "result": 99.8, "unit": "%"}, {"measurement": "Kd", "setting": "fibrin [1]; S.E., n=3, read-out: High-Affinity KD @ 37° C.", "result": 5.92, "unit": "nM"}]}
{"substance": "tPA(P)-ELIP: PPACK-inactivated tPA conjugated by thioether linkage to MPB-ELIP (PC:MPB-PE:DPPG:CH 69:8:8:15); made without detergent or with 0.01% Tween 20", "values": [{"measurement": "Kd", "setting": "fibrin [3]", "result": 3.91, "unit": "nM"}, {"measurement": "Avidity", "setting": "fibrin [1]; +Tween 20", "result": 0.151, "unit": "M^−1/LIP × 10^12"}, {"measurement": "Avidity", "setting": "fibrin [1]; No Detergent", "result": 0.480, "unit": "M^−1/LIP × 10^12"}, {"measurement": "ΔS°", "setting": "fibrin [1]; high affinity only", "result": "+14.7 cal/mole°"}, {"measurement": "ΔG°", "setting": "fibrin [1]; high affinity only, 278 K", "result": -11.1, "unit": "kcal/mol"}, {"measurement": "Kassoc", "setting": "fibrin [1]; high affinity only, 278 K", "result": "5.83e+08", "unit": "M⁻¹"}, {"measurement": "ΔG°", "setting": "fibrin [1]; high affinity only, 297 K", "result": -11.5, "unit": "kcal/mol"}, {"measurement": "Kassoc", "setting": "fibrin [1]; high affinity only, 297 K", "result": "3.01e+08", "unit": "M⁻¹"}, {"measurement": "ΔG°", "setting": "fibrin [1]; high affinity only, 310 K", "result": -11.6, "unit": "kcal/mol"}, {"measurement": "Kassoc", "setting": "fibrin [1]; high affinity only, 310 K", "result": "1.51e+08", "unit": "M⁻¹"}, {"measurement": "ΔH°", "setting": "fibrin [1]; high affinity only, van't Hoff plot", "result": -7.08, "unit": "kcal/mol"}, {"measurement": "Kd", "setting": "fibrin [1]; thiolation buffers: +Tween 20, read-out: KD @ 37° C.", "result": 6.62, "unit": "nM"}, {"measurement": "Kd", "setting": "fibrin [1]; thiolation buffers: No Detergent, read-out: KD @ 37° C.", "result": 1.9, "unit": "nM"}]}
